Patent publication US20240075161A1 (AUGUSTA UNIVERSITY RESEARCH INSTITUTE, published 2024)
Where no end group is shown, it is not given here. The star is where a group is joined. Biotin = O=C1N[C@H]2[C@H](CS[C@H]2CCCCC(=O)*)N1

Target: T1, CD206 on CD206-positive M2 macrophages (mouse) (mouse, UniProt Q61830 20-1456)
T1 construct: whole, on cells; No purified CD206 was used; also called CD206 receptor; CD206+ RAW264.7 cells
T1 sequence (looked up): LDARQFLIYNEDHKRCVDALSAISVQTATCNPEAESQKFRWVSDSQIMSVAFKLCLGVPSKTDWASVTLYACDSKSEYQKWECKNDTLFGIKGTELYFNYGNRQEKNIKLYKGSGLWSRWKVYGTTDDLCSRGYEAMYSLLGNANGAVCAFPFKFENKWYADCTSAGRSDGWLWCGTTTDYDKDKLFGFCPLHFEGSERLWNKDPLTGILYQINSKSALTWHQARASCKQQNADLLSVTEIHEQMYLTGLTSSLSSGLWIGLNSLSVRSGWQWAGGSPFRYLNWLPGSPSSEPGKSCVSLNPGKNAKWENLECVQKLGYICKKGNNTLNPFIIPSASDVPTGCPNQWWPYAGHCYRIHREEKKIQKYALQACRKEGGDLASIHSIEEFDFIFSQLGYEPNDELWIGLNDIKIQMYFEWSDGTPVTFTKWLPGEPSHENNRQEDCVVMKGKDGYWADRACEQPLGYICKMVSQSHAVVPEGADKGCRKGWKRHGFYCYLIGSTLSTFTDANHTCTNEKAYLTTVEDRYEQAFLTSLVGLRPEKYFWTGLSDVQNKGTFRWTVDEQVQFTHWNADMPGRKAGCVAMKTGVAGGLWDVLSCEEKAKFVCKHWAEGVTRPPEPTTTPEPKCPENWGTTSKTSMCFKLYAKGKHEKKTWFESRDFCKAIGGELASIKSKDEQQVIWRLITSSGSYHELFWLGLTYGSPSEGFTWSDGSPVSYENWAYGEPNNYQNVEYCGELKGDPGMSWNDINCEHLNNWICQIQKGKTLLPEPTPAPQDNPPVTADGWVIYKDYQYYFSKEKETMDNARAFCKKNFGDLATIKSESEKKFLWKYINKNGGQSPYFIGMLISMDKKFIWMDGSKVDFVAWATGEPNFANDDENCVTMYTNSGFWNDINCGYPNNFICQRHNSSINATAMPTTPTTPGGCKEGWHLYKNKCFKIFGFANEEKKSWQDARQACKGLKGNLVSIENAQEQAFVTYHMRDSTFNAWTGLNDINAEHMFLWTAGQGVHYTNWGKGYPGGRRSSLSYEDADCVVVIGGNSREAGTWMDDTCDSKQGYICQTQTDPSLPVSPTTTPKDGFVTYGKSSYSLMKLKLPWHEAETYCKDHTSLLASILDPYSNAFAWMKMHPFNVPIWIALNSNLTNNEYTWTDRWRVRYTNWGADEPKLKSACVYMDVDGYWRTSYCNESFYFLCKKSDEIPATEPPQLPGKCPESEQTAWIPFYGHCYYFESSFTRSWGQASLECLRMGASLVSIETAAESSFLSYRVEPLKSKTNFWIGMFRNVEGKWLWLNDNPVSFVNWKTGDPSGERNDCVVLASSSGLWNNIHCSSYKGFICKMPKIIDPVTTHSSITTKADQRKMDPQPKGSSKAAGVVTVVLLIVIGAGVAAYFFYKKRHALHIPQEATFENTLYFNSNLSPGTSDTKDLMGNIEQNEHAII
Assay: immunofluorescence of tumor, spleen and lung sections of 4T1 tumor-bearing mice after i.v. injection

B1: Biotinylated precision peptide (Biotin-CSPGAKVRC), rhodamine-labeled (peptide)
peptide: Biotin-CSPGAKVRC
modifications: cysteine pairing not given here; also: complex with rhodamine-tagged streptavidin
notes: Synthetic peptide (GeneScript); injected i.v. as a complex with rhodamine-streptavidin; also called Rhodamine red-labeled targeting peptide; rhodamine-labeled precision peptide
B1: binds.
